Data from US20140072613A1, “Compositions and Methods for Treating Cutaneous Scarring” (priority 2012, published 2014).

Tests used:
Assay in all cases: biochemical
Format in all cases: biochemical
266 human kinases [1] = molecular target: 266 human kinases (Homo sapiens, UniProt P00533, L858R/T790M); conditions: EGFR(T790M,L858R)(h); 100 μM
How it was run: (§1)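 Steps: kinase transfers radiolabelled phosphate from ATP onto a positively charged substrate; the substrate is trapped on a negatively charged filter; bound radioactivity is counted by scintillation and compared with uninhibited (100%) activity.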

266 human kinases [2] = molecular target: 266 human kinases (Homo sapiens, UniProt P06213); conditions: IR(h), 100 μM
How it was run: as §1

266 human kinases [3] = molecular target: 266 human kinases (Homo sapiens, UniProt P52564); conditions: MKK6(h); 100 μM
Chain of 266 human kinases (Homo sapiens, UniProt P52564) (P52564 whole entry): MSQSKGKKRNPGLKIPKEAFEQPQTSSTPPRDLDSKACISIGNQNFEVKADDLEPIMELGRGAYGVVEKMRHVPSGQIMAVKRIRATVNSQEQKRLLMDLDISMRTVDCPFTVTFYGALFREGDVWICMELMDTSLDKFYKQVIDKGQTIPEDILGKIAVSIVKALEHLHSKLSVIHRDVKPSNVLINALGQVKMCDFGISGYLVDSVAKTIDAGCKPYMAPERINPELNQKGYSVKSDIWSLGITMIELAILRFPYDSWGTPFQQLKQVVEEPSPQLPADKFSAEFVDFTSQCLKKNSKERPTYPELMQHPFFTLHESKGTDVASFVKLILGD
How it was run: as §1

266 human kinases [4] = molecular target: 266 human kinases (Homo sapiens, UniProt P54764); conditions: EphA4(h); 100 μM
Chain of 266 human kinases (Homo sapiens, UniProt P54764) (P54764 20-986): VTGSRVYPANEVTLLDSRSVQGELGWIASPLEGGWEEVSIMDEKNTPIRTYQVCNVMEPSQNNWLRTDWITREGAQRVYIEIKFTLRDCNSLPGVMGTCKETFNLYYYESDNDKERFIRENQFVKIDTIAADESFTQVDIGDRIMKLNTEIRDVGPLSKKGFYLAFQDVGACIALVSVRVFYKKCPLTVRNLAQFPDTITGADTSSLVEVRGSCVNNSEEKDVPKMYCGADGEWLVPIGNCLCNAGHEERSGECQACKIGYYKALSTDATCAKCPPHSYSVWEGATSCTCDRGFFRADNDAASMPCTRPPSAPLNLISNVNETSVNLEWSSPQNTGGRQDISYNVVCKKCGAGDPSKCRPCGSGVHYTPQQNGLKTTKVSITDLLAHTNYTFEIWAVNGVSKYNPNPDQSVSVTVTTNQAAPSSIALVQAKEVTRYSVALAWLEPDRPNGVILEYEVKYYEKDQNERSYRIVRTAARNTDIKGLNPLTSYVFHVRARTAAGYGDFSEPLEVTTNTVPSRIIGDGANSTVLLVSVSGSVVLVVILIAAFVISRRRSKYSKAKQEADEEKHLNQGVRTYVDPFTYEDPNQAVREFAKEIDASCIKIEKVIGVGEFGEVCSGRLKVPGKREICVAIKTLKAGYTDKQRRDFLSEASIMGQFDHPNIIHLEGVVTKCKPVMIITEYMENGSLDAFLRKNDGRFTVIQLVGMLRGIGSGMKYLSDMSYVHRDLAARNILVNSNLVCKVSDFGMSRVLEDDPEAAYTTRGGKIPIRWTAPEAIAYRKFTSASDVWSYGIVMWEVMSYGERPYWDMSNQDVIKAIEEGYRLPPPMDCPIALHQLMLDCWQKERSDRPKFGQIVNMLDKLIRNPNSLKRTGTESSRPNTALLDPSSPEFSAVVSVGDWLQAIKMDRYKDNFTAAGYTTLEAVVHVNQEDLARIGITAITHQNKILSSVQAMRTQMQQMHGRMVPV
How it was run: as §1

266 human kinases [5] = molecular target: 266 human kinases (Homo sapiens, UniProt P12931, T341M); conditions: Src(T341M)(h); 100 μM
How it was run: as §1

266 human kinases [6] = molecular target: 266 human kinases (Homo sapiens, UniProt P09619); conditions: PDGFRβ(h); 100 μM
How it was run: as §1

266 human kinases [7] = molecular target: 266 human kinases (Homo sapiens, UniProt P06239); conditions: 100 μM
Chain of 266 human kinases (Homo sapiens, UniProt P06239) (P06239 whole entry): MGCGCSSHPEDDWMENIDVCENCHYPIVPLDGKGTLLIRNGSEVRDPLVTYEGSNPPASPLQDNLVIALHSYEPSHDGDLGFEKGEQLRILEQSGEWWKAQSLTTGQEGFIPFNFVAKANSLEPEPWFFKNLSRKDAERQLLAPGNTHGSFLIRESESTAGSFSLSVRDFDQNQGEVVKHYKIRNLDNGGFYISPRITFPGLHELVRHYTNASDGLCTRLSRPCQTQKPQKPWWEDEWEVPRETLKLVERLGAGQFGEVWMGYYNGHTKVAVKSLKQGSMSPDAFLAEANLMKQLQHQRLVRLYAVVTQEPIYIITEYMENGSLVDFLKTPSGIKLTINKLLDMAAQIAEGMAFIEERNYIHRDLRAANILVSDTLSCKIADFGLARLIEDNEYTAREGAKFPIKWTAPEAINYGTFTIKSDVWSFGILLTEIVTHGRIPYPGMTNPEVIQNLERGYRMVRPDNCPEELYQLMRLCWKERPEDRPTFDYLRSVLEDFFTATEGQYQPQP
How it was run: as §1

266 human kinases [8] = molecular target: 266 human kinases (Homo sapiens, UniProt P07949); conditions: Ret(h); 100 μM
How it was run: as §1

266 human kinases [9] = molecular target: 266 human kinases (Homo sapiens, UniProt P49761); conditions: CLK3(h); 100 μM
Chain of 266 human kinases (Homo sapiens, UniProt P49761) (P49761 whole entry): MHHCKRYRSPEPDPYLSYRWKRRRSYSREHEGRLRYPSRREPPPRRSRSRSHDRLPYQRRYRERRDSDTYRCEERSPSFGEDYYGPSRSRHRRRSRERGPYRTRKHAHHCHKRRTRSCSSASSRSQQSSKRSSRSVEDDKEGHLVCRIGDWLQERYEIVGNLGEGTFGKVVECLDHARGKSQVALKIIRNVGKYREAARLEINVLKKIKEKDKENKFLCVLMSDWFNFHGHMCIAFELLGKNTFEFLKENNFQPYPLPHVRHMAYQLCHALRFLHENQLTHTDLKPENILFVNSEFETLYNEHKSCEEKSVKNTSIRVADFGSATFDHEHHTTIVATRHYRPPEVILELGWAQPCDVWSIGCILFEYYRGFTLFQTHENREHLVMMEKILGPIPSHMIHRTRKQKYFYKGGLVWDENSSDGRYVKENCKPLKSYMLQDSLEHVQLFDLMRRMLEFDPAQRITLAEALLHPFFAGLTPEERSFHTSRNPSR
How it was run: as §1

266 human kinases [10] = molecular target: 266 human kinases (Homo sapiens, UniProt Q05397); conditions: FAK(h); 100 μM
Chain of 266 human kinases (Homo sapiens, UniProt Q05397) (Q05397 whole entry): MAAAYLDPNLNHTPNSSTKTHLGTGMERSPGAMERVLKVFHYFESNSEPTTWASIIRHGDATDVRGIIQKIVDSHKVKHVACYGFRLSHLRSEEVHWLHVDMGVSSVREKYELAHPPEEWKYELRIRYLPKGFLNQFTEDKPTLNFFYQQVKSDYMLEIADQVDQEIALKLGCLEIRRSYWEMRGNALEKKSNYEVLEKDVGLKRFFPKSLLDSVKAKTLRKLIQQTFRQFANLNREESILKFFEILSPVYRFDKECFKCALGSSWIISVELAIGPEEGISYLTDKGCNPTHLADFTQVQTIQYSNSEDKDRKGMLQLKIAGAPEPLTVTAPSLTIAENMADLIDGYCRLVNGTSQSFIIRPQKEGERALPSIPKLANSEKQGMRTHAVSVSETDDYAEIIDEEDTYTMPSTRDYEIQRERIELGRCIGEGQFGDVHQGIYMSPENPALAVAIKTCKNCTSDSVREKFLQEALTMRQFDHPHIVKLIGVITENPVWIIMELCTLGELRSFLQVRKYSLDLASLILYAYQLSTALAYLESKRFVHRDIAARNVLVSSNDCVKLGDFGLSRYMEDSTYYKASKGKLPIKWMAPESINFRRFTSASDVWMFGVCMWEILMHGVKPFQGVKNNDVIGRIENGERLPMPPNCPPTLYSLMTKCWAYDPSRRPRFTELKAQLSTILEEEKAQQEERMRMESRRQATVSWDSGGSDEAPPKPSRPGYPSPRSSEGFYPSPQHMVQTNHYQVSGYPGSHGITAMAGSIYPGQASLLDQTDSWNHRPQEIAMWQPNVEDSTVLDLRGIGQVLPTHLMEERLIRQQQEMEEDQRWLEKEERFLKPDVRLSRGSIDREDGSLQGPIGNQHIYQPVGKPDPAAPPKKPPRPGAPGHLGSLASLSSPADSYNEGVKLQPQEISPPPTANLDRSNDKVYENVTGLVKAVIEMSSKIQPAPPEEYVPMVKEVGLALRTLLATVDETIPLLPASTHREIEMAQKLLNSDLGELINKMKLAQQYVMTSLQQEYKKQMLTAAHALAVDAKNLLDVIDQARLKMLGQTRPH
How it was run: as §1

266 human kinases [11] = molecular target: 266 human kinases (Homo sapiens, UniProt P00519, T315I); conditions: Abl(T315I)(h); 100 μM
How it was run: as §1

266 human kinases [12] = molecular target: 266 human kinases (Homo sapiens, UniProt P78362); conditions: SRPK2(h); 100 μM
Chain of 266 human kinases (Homo sapiens, UniProt P78362) (P78362 whole entry): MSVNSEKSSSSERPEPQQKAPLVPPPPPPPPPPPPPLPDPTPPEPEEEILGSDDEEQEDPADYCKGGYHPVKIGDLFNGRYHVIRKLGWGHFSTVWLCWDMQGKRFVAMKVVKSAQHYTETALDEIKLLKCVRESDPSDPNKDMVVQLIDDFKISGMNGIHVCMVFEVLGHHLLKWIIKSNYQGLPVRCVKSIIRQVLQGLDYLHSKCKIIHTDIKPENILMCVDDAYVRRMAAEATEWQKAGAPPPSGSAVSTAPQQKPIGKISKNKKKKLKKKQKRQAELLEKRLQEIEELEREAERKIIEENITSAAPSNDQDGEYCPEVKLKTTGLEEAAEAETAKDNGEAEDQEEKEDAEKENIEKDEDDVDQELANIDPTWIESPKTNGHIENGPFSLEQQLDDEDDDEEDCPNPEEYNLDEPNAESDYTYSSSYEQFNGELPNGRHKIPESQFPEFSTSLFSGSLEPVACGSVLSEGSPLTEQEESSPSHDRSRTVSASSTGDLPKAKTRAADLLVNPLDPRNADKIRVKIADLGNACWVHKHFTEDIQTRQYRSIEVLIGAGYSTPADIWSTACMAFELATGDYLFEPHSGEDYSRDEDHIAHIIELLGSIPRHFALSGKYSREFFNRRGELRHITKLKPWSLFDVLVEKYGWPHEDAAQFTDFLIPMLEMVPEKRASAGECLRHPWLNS
How it was run: as §1

266 human kinases [13] = molecular target: 266 human kinases (Homo sapiens, UniProt Q86V86); conditions: Pim-3(h); 100 μM
How it was run: as §1

266 human kinases [14] = molecular target: 266 human kinases (Homo sapiens, UniProt P53778); conditions: SAPK3(h); 100 μM
How it was run: as §1

266 human kinases [15] = molecular target: 266 human kinases (Homo sapiens, UniProt P49841); conditions: 6SK3β(h); 100 μM
How it was run: as §1

266 human kinases [16] = molecular target: T1, 266 human kinases (Homo sapiens, UniProt P51956); conditions: NEK3(h); 100 μM
T1 sequence (P51956 1-506): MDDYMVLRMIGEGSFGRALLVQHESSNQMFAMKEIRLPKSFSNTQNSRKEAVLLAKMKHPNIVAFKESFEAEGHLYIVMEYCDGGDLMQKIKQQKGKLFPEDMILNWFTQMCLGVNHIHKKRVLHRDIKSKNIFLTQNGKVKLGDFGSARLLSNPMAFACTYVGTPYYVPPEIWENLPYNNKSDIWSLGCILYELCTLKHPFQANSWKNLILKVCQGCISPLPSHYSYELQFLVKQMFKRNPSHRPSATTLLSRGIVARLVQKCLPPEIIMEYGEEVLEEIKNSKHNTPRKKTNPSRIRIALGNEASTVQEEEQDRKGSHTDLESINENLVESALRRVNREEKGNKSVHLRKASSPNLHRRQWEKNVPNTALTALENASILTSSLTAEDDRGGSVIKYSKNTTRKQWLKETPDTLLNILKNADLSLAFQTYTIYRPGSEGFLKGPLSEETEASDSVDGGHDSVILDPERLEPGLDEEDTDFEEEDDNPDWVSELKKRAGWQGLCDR
How it was run: as §1

266 human kinases [17] = molecular target: 266 human kinases (Homo sapiens, UniProt P24723); conditions: PKGη(h); 100 μM
How it was run: as §1

266 human kinases [18] = molecular target: 266 human kinases (Homo sapiens, UniProt P43405); conditions: Syk(h); 100 μM
How it was run: as §1

266 human kinases [19] = molecular target: 266 human kinases (Homo sapiens, UniProt O96017, R145W); conditions: CHK2(R145W)(h); 100 μM
How it was run: as §1

266 human kinases [20] = molecular target: 266 human kinases (Homo sapiens, UniProt Q13557); conditions: CaMKIIδ(h); 100 μM
How it was run: as §1

266 human kinases [21] = molecular target: 266 human kinases (Homo sapiens, UniProt Q15375); conditions: EphA7(h); 100 μM
Chain of 266 human kinases (Homo sapiens, UniProt Q15375) (Q15375 28-998): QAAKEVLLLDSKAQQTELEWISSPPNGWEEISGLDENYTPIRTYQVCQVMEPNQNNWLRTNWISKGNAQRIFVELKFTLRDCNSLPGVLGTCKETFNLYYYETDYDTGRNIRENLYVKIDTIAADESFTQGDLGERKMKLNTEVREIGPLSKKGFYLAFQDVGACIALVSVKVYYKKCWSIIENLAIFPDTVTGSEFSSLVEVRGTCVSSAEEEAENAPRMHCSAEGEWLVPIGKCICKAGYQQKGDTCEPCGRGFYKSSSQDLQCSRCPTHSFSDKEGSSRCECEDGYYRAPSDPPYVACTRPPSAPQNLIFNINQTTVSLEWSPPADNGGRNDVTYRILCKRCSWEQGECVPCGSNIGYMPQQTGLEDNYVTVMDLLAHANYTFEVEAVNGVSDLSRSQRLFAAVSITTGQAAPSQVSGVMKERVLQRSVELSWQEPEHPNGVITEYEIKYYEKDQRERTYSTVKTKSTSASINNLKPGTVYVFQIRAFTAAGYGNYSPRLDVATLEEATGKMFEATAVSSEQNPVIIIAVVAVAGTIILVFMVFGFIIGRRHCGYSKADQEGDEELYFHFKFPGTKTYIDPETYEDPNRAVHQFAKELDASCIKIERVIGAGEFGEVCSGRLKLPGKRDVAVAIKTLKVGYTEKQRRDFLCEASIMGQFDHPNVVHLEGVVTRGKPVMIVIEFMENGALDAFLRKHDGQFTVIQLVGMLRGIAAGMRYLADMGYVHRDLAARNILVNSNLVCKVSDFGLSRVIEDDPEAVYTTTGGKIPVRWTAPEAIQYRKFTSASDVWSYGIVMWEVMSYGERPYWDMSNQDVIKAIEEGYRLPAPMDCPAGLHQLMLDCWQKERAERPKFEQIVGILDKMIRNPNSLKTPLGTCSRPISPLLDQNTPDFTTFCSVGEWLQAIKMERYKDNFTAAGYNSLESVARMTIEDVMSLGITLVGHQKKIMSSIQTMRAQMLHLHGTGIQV
How it was run: as §1

Sequence | % activity (266 human kinases [1]) [%] | % activity (266 human kinases [2]) [%] | % activity (266 human kinases [3]) [%] | % activity (266 human kinases [4]) [%] | % activity (266 human kinases [5]) [%] | % activity (266 human kinases [6]) [%] | % activity (266 human kinases [7]; Lck(h) activated) [%] | % activity (266 human kinases [8]) [%] | % activity (266 human kinases [9]) [%] | % activity (266 human kinases [10]) [%] | % activity (266 human kinases [11]) [%] | % activity (266 human kinases [12]) [%] | % activity (266 human kinases [13]) [%] | % activity (266 human kinases [14]) [%] | % activity (266 human kinases [15]) [%] | % activity (266 human kinases [16]) [%] | % activity (266 human kinases [17]) [%] | % activity (266 human kinases [18]) [%] | % activity (266 human kinases [19]) [%] | % activity (266 human kinases [20]) [%] | further results
HRRIKAWLKKIKALARQLGVAA (mammal) [MMI-0500] | 53 | 95 | 18 | 48 | 59 | 40 | 76 | 174 | 76 | 94 | 16 | 80 | 37 | 24 | 238 | 20 | 45 | 5 | 3 | 1 | % activity (266 human kinases [2]; activated): 90%; % activity (266 human kinases [7]; Lck(h)): 359%; % activity (266 human kinases [21]): 189%
YARAAARQARAKALNRQLGVA (mammal) [MMI-0200] | 108 | 90 | 98 | 127 | 56 | 137 | 90 | 96 | 76 | 110 | 108 | 100 | 94 | 97 | 132 | 100 | 101 | 36 | 81 | 2 | % activity (266 human kinases [21]): 220%
